Laboratory results reported in US20260317443 (published 2026).
Where a chain is given by its changes, count along the chain named.

B1: 25B05_H1-L1 (antibody, V domains shown)
VH: QVQLVQSGAEVKKPGASVKVSCKASGYTFTDYFMNWVRQAPGQRLEWMGVINPHNGGTSYSQKFQGRVTITRDTSASTAYMELSSLRSEDTAVYYCARRPLGSDYWGQGTTVTVSS
VL: DIQMTQSPSSVSASVGDRVTITCKASQNVGTAVAWYQQKPGKAPKLLIYSASSRYTGVPSRFSGSGSGTDFTLTISSLQPEDFATYYCQQYSSYPLTFGQGTKLEIK
B2: 25B05_H1-L2 (antibody, V domains shown)
VH: B1 VH
VL: B1 VL with Q3V
B3: 25B05_H1-L4 (antibody, V domains shown)
VH: B1 VH
VL: B1 VL with Q3V, G57E, S60D
B4: 33D03_H1-L4 (antibody, V domains shown)
VH: QVQLVQSGAEVKKPGASVKVSCKASGYTFTDYYLNWVRQAPGQRLEWMGIINPYNGGTNYSQKFQGRVTITRDTSASTAYMELSSLRSEDTAVYYCASEGLRTWFTYWGQGTLVTVSS
VL: DIVMTQSPDSLAVSLGERATISCKSSQSLSNSGNQKIYLAWYQQKPGQPPKLLIYGASSRESGVPDRFSGSGSEIDFTLTISSLQAEDVAVYYCQNDHSHPFTFGQGTKLEIK
B5: 33D03_H3-L1 (antibody, V domains shown)
VH: B4 VH with R72V, T74K, A76S
VL: B4 VL with S22N, E74G, I75T
B6: 33D03_H5-L2 (antibody, V domains shown)
VH: B4 VH with Q1E, S61N, K63R, Q65K, I70L, R72V, T74K, A76S
VL: B4 VL with E74G, I75T

Molecular target: human VWF (human)
Assay: ELISA

Chain of human VWF (human) (P04275 whole entry): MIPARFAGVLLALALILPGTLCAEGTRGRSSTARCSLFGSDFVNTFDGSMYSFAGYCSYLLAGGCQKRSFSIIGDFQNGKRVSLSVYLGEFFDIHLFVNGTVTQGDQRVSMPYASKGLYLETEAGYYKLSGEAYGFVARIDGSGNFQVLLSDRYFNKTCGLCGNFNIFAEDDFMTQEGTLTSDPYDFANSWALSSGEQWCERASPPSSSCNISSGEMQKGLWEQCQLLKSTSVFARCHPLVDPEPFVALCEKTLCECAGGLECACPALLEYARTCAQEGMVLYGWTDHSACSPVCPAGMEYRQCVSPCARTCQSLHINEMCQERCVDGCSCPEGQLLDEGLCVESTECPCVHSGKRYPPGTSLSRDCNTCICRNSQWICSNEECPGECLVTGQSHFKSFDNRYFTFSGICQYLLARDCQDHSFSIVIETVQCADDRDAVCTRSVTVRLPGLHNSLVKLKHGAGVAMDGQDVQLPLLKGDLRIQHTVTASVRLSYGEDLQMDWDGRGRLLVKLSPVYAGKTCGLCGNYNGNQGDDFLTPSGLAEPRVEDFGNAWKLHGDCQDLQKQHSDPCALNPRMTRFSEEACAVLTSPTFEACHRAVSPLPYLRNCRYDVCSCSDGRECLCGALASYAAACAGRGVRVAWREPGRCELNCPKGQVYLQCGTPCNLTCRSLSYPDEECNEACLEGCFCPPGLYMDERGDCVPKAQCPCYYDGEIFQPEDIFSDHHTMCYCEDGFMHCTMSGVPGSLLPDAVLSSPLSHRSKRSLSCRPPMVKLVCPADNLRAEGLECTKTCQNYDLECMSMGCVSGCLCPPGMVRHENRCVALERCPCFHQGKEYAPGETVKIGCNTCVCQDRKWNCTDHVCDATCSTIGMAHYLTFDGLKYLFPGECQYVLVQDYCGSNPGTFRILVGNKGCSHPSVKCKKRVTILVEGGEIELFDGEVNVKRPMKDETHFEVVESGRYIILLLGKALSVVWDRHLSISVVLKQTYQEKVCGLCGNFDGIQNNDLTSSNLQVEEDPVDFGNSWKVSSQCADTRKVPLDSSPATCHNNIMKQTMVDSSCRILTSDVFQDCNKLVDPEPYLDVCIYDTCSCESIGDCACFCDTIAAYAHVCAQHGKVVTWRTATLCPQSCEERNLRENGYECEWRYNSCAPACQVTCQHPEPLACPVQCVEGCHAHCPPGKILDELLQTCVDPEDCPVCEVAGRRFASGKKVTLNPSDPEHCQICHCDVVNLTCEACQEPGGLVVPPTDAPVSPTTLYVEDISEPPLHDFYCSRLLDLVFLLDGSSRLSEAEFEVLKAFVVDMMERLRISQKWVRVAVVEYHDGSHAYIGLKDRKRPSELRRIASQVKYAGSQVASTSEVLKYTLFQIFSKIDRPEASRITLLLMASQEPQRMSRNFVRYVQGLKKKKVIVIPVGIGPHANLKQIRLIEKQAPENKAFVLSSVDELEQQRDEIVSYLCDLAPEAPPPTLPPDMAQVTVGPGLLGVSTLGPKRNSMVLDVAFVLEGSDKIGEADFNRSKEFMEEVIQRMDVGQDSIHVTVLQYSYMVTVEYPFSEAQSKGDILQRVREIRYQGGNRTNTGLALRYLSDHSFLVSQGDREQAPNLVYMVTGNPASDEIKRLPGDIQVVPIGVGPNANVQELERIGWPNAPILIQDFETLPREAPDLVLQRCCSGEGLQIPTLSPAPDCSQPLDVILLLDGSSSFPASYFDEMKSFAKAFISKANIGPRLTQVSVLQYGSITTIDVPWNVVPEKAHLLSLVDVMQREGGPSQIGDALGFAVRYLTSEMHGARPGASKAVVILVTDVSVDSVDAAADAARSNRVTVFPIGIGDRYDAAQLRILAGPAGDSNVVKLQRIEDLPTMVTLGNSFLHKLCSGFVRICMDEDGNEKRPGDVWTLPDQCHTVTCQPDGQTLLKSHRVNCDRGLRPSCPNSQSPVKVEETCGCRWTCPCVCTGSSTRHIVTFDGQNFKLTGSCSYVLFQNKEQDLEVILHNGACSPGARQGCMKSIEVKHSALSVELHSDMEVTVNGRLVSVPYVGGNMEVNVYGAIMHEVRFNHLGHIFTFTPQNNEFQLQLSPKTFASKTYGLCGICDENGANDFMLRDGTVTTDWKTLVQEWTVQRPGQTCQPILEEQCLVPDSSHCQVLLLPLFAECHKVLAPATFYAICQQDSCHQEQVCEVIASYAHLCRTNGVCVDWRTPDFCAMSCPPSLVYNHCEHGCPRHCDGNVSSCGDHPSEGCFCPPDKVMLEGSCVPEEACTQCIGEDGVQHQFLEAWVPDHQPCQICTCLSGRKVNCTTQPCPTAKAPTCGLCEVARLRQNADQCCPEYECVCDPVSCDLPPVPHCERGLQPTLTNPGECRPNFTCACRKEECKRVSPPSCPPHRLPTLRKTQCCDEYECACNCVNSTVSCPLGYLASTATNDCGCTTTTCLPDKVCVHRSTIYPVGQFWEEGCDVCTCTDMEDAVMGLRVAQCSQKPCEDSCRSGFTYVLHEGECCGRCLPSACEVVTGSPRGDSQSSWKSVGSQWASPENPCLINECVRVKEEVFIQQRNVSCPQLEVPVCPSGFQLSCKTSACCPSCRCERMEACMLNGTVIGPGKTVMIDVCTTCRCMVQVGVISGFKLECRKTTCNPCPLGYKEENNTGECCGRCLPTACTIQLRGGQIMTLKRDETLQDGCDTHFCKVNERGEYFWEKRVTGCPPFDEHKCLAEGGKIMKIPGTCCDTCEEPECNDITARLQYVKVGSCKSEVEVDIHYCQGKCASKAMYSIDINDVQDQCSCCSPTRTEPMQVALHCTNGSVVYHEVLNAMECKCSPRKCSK

B1 and B2 are within 1.5-fold of each other in EC50: 0.0312 µg/mL for the first, 0.0334 µg/mL for the second.

Going from B3 to B4, the EC50 rises from 0.0344 µg/mL to 0.054 µg/mL (1.6-fold).

First: B5
Second: B6
The EC50 of the first is 1.5-fold higher: 0.0447 µg/mL for the first, 0.0294 µg/mL for the second.
